In patent US12123042:

System: cytochrome C

Chain of S. rebaudiana CPR1 (cytochrome P450 reductase) (chain, as listed by the source): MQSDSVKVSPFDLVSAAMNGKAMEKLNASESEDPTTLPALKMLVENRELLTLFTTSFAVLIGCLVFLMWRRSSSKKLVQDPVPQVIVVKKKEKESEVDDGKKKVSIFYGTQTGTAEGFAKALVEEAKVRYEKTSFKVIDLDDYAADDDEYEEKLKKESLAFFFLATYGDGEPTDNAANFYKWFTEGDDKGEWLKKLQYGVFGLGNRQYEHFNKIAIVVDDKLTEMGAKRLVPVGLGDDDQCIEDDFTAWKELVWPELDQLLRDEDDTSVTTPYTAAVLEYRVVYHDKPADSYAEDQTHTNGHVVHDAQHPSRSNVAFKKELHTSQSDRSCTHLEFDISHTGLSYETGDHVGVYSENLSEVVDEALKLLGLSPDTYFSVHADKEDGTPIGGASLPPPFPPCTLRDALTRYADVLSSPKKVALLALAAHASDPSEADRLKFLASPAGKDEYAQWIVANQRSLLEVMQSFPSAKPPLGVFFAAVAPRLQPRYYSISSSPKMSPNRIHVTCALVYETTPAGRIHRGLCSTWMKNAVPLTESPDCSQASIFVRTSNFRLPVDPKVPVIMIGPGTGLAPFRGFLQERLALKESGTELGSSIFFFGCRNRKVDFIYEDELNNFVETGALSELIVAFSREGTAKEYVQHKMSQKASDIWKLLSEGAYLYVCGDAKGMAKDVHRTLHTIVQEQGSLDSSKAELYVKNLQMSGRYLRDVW

Substance: S. rebaudiana CPR1 (cytochrome P450 reductase)
- CPR activity (cytochrome C reductase assay, increase in absorbance at 550 nm, units/mg microsomal protein): 7- and 14-fold higher activity, respectively, compared to the negative control
